Reference: publication PMC2877795, “Laminin chain assembly is regulated by specific coiled-coil interactions” (Journal of Structural Biology, 2010)
Blank lines part the entries; values can stand above or below the binder they belong to.

What was measured:
Conditions in all cases: both partners purified
[1] = biological target: T1, recombinant mouse laminin β1 chain C-terminal coiled-coil fragment (1561–1786) (mouse, UniProt P02469 1561-1786); experiment: AUC; sedimentation equilibrium and velocity; 5 mM sodium phosphate, 150 mM NaCl, pH 7.0 (methods) or 7.4 (Table 3); 0.1-0.5 mg/ml
T1 construct: two residues (GlySer) left from the protease recognition site after thrombin cleavage; laminin β1 chain, mouse, C-terminal coiled-coil fragment, residues 1561-1786 of the native chain (226 residues); source: E. coli JM109(DE3), purified (Ni2+-Sepharose, denaturing, 8 M urea), 6xHis tag removed by thrombin; not shown: 6xHis, N-terminal, cleaved
T1 sequence: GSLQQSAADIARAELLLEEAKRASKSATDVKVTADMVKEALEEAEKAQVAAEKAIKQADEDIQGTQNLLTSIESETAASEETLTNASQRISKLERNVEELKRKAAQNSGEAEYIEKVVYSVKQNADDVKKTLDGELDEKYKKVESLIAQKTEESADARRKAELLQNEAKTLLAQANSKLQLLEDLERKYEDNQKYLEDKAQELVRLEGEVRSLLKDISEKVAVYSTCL

[2] = biological target: T2, β1γ1 complex of the recombinant mouse laminin coiled-coil fragments (mouse, UniProt P02469 1561-1786; P02468 1362-1607); experiment: as above
T2 construct: two residues (GlySer) left from the protease recognition site after thrombin cleavage; laminin β1 chain, mouse, residues 1561-1786 of the native chain; as m6; laminin γ1 chain, mouse, residues 1362-1607 of the native chain; as m9; heterodimer by AUC; in the αβγ tests all three chains were mixed, the βγ complex was not isolated beforehand; source: mixture of the purified E. coli fragments; not …
T2 sequence 1: T1 sequence
T2 sequence 2: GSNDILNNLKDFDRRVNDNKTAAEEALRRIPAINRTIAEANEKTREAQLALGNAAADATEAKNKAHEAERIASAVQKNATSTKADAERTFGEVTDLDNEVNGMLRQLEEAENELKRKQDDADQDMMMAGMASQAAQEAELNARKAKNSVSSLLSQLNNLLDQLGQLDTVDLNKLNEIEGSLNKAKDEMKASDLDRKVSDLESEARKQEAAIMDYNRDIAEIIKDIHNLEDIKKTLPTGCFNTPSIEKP

[3] = biological target: T3, β1γ2 complex of the recombinant mouse laminin coiled-coil fragments (mouse, UniProt P02469 1561-1786; Q61092 949-1191); experiment: as above
T3 construct: two residues (GlySer) left from the protease recognition site after thrombin cleavage; laminin β1 chain, mouse, residues 1561-1786 of the native chain; as m6; laminin γ2 chain, mouse, residues 949-1191 of the native chain; as m10; alone a heterotetramer by AUC (most likely two β1 and two γ2 chains); one chain of each in the trimer with α3; in the αβγ tests all three chains were mixed; also called …
T3 sequence 1: T1 sequence
T3 sequence 2: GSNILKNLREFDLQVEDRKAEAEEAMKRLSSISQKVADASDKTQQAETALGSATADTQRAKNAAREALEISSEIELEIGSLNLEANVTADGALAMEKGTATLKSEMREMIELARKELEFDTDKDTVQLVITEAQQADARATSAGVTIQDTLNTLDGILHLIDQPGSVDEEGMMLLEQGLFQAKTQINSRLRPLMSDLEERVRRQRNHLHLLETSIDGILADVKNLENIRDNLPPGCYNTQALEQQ

[4] = biological target: T4, β2γ1 complex of the recombinant mouse laminin coiled-coil fragments (mouse, UniProt Q61292 1575-1799; P02468 1362-1607); experiment: native gel or EMSA; mixtures of one α, one β and one γ chain fragment; 10% non-denaturing PAGE (acid gels for basic complexes); mixtures reduced, heated to 70 °C for 5 min and cooled; run overnight at 50 V, room temperature, no cooling; Coomassie; bands confirmed by in-gel trypsin digestion and mass spectrometry
T4 construct: two residues (GlySer) left from the protease recognition site after thrombin cleavage; laminin β2 chain, mouse, residues 1575-1799 of the native chain; as m7; laminin γ1 chain, mouse, residues 1362-1607 of the native chain; as m9; in the αβγ tests all three chains were mixed, the βγ complex was not isolated beforehand; source: mixture of the purified E. coli fragments; not shown: 6xHis, …
T4 sequence 1: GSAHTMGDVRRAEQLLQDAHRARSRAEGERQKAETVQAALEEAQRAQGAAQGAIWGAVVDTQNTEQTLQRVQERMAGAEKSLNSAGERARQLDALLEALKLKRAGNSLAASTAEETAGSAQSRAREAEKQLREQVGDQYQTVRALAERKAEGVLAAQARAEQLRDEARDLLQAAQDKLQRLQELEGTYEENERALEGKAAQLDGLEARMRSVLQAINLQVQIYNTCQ
T4 sequence 2: T2 sequence 2

[5] = biological target: T5, β3γ2 complex of the recombinant mouse laminin coiled-coil fragments (mouse, UniProt Q61087 945-1168; Q61092 949-1191); experiment: as above
T5 construct: two residues (GlySer) left from the protease recognition site after thrombin cleavage; laminin β3 chain, mouse, residues 945-1168 of the native chain; as m8; laminin γ2 chain, mouse, residues 949-1191 of the native chain; as m10; in the αβγ tests all three chains were mixed, the βγ complex was not isolated beforehand; source: mixture of the purified E. coli fragments; not shown: 6xHis, …
T5 sequence 1: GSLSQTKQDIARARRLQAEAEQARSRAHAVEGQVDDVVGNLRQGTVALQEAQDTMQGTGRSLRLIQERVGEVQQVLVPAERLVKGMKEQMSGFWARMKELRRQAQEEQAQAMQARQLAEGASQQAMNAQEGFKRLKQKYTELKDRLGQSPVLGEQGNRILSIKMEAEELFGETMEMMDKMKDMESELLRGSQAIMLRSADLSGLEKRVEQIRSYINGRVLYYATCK
T5 sequence 2: T3 sequence 2

[6] = biological target: T1, recombinant mouse laminin β1 chain …; experiment: AUC; sedimentation equilibrium and velocity; 5 mM sodium phosphate, 150 mM NaCl, pH 7.0 (methods) or 7.4 (Table 3); 0.1-0.5 mg/ml; remark: listed apart in the source

- stoichiometry N [1]: 1
B1: recombinant mouse laminin γ1 chain C-terminal coiled-coil fragment (1362–1607) (domain or fragment)
chain: T2 sequence 2
notes: two residues (GlySer) left from the protease recognition site after thrombin cleavage; laminin γ1 chain, mouse, C-terminal coiled-coil fragment, residues 1362-1607 of the native chain (246 residues); source: E. coli JM109(DE3), purified (Ni2+-Sepharose, denaturing, 8 M urea), 6xHis tag removed by thrombin; not shown: 6xHis, N-terminal, cleaved; pPEP-T leader (short C-terminal fragment of the …)

- stoichiometry N [2]: 1
- stoichiometry N [3]: 1
- binding result [4]: binds
- binding result [5]: binds
B2: recombinant mouse laminin α3 chain C-terminal coiled-coil fragment (2176–2397) (domain or fragment)
chain: GSYENILNAIRAAEDAASKATSASKSAFQTVIKEDLPKRAKTLSSDSEELLNEAKMTQKRLQQVSPALNSLQQTLKTVSVQKDLLDANLTVARDDLHGIQRGDIDSVVIGAKSMVREANGITSEVLDGLNPIQTDLGRIKDSYESARREDFSKALVDANNSVKKLTRKLPDLFIKIESINQQLLPLGNISDNVDRIRELIQQARDAANKVAIPMRFNGKSGVEV
notes: two residues (GlySer) left from the protease recognition site after thrombin cleavage; laminin α3 chain, mouse, C-terminal coiled-coil fragment, residues 2176-2397 of the native chain (222 residues); the printed numbers fit the long (α3B) form; source: E. coli JM109(DE3), purified (Ni2+-Sepharose, denaturing, 8 M urea), 6xHis tag removed by thrombin; not shown: 6xHis, N-terminal, cleaved; pPEP-T …

- stoichiometry N [6]: 1 γ2 per β1 (2:2)
B3: recombinant mouse laminin γ2 chain C-terminal coiled-coil fragment (949–1191) (domain or fragment)
chain: T3 sequence 2
notes: two residues (GlySer) left from the protease recognition site after thrombin cleavage; laminin γ2 chain, mouse, C-terminal coiled-coil fragment, residues 949-1191 of the native chain (243 residues); source: E. coli JM109(DE3), purified (Ni2+-Sepharose, denaturing, 8 M urea), 6xHis tag removed by thrombin; not shown: 6xHis, N-terminal, cleaved; pPEP-T leader (short C-terminal fragment of the …)
